Test system: Escherichia coli TOP10
Test: shrunken log2 fold change of peptide-encoding DNA abundance (4.5 h post-induction vs induction); higher = less antimicrobial activity (less host growth inhibition)
Details: time post-induction: 4.5 h; library: site-saturation at positions 5, 18, 19, 20
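Also: peptides expressed intracellularly from a pBAD plasmid library in pooled LB shake-flask culture, induced with 0.3% L-arabinose, DNA abundance read by NGS, three biological replicates, DESeq2 with apeglm shrinkage.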

Sequence	shrunken log2 fold change
RRIRERPPRLPRPRPRPNKYPRP	0.202
RRIRFRPPRLPRPRPRPWSVPRP	-0.0111
RRIRARPPRLPRPRPRPTSCPRP	-0.15
RRIRDRPPRLPRPRPRPLAKPRP	0.96
RRIRSRPPRLPRPRPRPYWTPRP	-0.141
RRIRKRPPRLPRPRPRPGSHPRP	0.0202
RRIRDRPPRLPRPRPRPHVFPRP	-0.0358
RRIRHRPPRLPRPRPRPESQPRP	-0.173
RRIRWRPPRLPRPRPRPVDRPRP	-0.0331
RRIRFRPPRLPRPRPRPSRPPRP	0.616
RRIRNRPPRLPRPRPRPIFAPRP	0.111
RRIRNRPPRLPRPRPRPYLIPRP	-0.0464
RRIRWRPPRLPRPRPRPEGIPRP	-0.00186
RRIRHRPPRLPRPRPRPSELPRP	0.0169
RRIRTRPPRLPRPRPRPWRWPRP	0.554
RRIRWRPPRLPRPRPRPMRKPRP	1.4
RRIRIRPPRLPRPRPRPDTNPRP	-0.73
RRIRTRPPRLPRPRPRPAFGPRP	0.155
RRIRFRPPRLPRPRPRPQFDPRP	-0.286
RRIRKRPPRLPRPRPRPEEGPRP	0.0325
RRIRVRPPRLPRPRPRPWCYPRP	-0.366
RRIRVRPPRLPRPRPRPRREPRP	0.495
RRIRHRPPRLPRPRPRPWSPPRP	-0.697
RRIRIRPPRLPRPRPRPCVEPRP	-0.0421
RRIRTRPPRLPRPRPRPDYGPRP	0.00355

Sequence	shrunken log2 fold change
RRIRMRPPRLPRPRPRPANQPRP	0.191
RRIRTRPPRLPRPRPRPNFAPRP	0.00158
RRIRPRPPRLPRPRPRPDQVPRP	0.0258
RRIRLRPPRLPRPRPRPFEEPRP	0.127
RRIRERPPRLPRPRPRPPMAPRP	0.149
RRIRIRPPRLPRPRPRPGWAPRP	0.22
RRIRDRPPRLPRPRPRPFPTPRP	0.0231
RRIRRRPPRLPRPRPRPSDDPRP	0.209
RRIRYRPPRLPRPRPRPAMAPRP	0.0187
RRIRSRPPRLPRPRPRPGEPPRP	-0.054
RRIRERPPRLPRPRPRPDNLPRP	-0.00994
RRIRDRPPRLPRPRPRPGRIPRP	-0.136
RRIRTRPPRLPRPRPRPPDYPRP	-0.0981
RRIRFRPPRLPRPRPRPHPPPRP	1.27
RRIRPRPPRLPRPRPRPKFNPRP	-0.404
RRIRCRPPRLPRPRPRPHDFPRP	-0.0215
RRIRHRPPRLPRPRPRPAMCPRP	-0.148
RRIRQRPPRLPRPRPRPWQRPRP	-0.0557
RRIRERPPRLPRPRPRPVYHPRP	-1.35
RRIRARPPRLPRPRPRPGIIPRP	0.106
RRIRTRPPRLPRPRPRPWDVPRP	-0.092
RRIRFRPPRLPRPRPRPNIQPRP	-0.973
RRIRGRPPRLPRPRPRPPHHPRP	0.537
RRIRMRPPRLPRPRPRPWNTPRP	0.000609
RRIRTRPPRLPRPRPRPHIKPRP	-0.616

Sequence	shrunken log2 fold change
RRIRNRPPRLPRPRPRPTYNPRP	-0.692
RRIRTRPPRLPRPRPRPLGIPRP	-0.638
RRIRIRPPRLPRPRPRPWQPPRP	-0.0185
RRIRRRPPRLPRPRPRPFHHPRP	-0.0883
RRIRYRPPRLPRPRPRPLWNPRP	-0.471
RRIRKRPPRLPRPRPRPILAPRP	0.0492
RRIRCRPPRLPRPRPRPARMPRP	0.264
RRIRSRPPRLPRPRPRPEKVPRP	-0.1
RRIRFRPPRLPRPRPRPIQKPRP	0.00595
RRIRARPPRLPRPRPRPCANPRP	0.102
RRIRCRPPRLPRPRPRPIFPPRP	0.247
RRIRARPPRLPRPRPRPTERPRP	0.502
RRIRRRPPRLPRPRPRPWQEPRP	0.00489
RRIRLRPPRLPRPRPRPVSCPRP	-0.0041
RRIRIRPPRLPRPRPRPIDIPRP	-0.0353
RRIRLRPPRLPRPRPRPQTDPRP	-0.139
RRIRLRPPRLPRPRPRPLFGPRP	-0.0652
RRIRNRPPRLPRPRPRPKISPRP	-0.484
RRIRRRPPRLPRPRPRPDTQPRP	0.162
RRIRNRPPRLPRPRPRPCHRPRP	-0.139
RRIRERPPRLPRPRPRPPHGPRP	0.19
RRIRKRPPRLPRPRPRPPQWPRP	1.37
RRIRRRPPRLPRPRPRPGSYPRP	-0.0811
RRIRNRPPRLPRPRPRPNMIPRP	-0.697
RRIRFRPPRLPRPRPRPYMSPRP	-0.401

Sequence	shrunken log2 fold change
RRIRDRPPRLPRPRPRPALNPRP	-0.0576
RRIRRRPPRLPRPRPRPRHCPRP	0.119
RRIRERPPRLPRPRPRPWECPRP	-0.0135
RRIRRRPPRLPRPRPRPDGYPRP	-0.0109
RRIRERPPRLPRPRPRPEISPRP	-0.407
RRIRCRPPRLPRPRPRPGQHPRP	0.00766
RRIRRRPPRLPRPRPRPSSVPRP	0.131
RRIRLRPPRLPRPRPRPFPPPRP	0.00271
RRIRTRPPRLPRPRPRPSRSPRP	-0.0434
RRIRMRPPRLPRPRPRPRTSPRP	0.623
RRIRQRPPRLPRPRPRPLNQPRP	-0.155
RRIRGRPPRLPRPRPRPILAPRP	0.492
RRIRVRPPRLPRPRPRPYNPPRP	-0.492
RRIRQRPPRLPRPRPRPVVAPRP	0.174
RRIRLRPPRLPRPRPRPNKVPRP	-0.21
RRIRVRPPRLPRPRPRPSACPRP	-0.768
RRIRIRPPRLPRPRPRPHPRPRP	0.192
RRIRMRPPRLPRPRPRPTASPRP	1
RRIRYRPPRLPRPRPRPSICPRP	-0.0533
RRIRLRPPRLPRPRPRPSLPPRP	-0.0357
RRIRRRPPRLPRPRPRPKHWPRP	0.334
RRIRVRPPRLPRPRPRPWYFPRP	-0.619
RRIRARPPRLPRPRPRPNAHPRP	0.437
RRIRGRPPRLPRPRPRPCMRPRP	0.767
RRIRIRPPRLPRPRPRPHSIPRP	-0.933

Sequence	shrunken log2 fold change
RRIRPRPPRLPRPRPRPIFMPRP	-0.0036
RRIRSRPPRLPRPRPRPLEDPRP	0.0492
RRIRIRPPRLPRPRPRPVWFPRP	-0.125
RRIRWRPPRLPRPRPRPVRKPRP	0.167
RRIRRRPPRLPRPRPRPSQFPRP	0.0893
RRIRDRPPRLPRPRPRPMICPRP	-0.0307
RRIRERPPRLPRPRPRPHQCPRP	-0.262
RRIRERPPRLPRPRPRPAHLPRP	0.301
RRIRGRPPRLPRPRPRPCMNPRP	0.104
RRIRKRPPRLPRPRPRPVNMPRP	0.113
RRIRSRPPRLPRPRPRPVCAPRP	0.386
RRIRGRPPRLPRPRPRPQAHPRP	0.441
RRIRLRPPRLPRPRPRPRRRPRP	0.395
RRIRERPPRLPRPRPRPCYVPRP	-0.716
RRIRCRPPRLPRPRPRPWSWPRP	0.0159
RRIRWRPPRLPRPRPRPNNPPRP	-0.631
RRIRVRPPRLPRPRPRPVDWPRP	0.403
RRIRERPPRLPRPRPRPDVPPRP	-0.117
RRIRCRPPRLPRPRPRPCKTPRP	-0.0345
RRIRPRPPRLPRPRPRPQILPRP	-0.172
RRIRSRPPRLPRPRPRPNRLPRP	-0.205
RRIRLRPPRLPRPRPRPAMPPRP	0.234
RRIRSRPPRLPRPRPRPTYDPRP	-0.262
RRIRSRPPRLPRPRPRPMLVPRP	-0.0894
RRIRYRPPRLPRPRPRPNKTPRP	-0.258

Sequence	shrunken log2 fold change
RRIRVRPPRLPRPRPRPADIPRP	-0.235
RRIRTRPPRLPRPRPRPEWPPRP	0.351
RRIRWRPPRLPRPRPRPEFNPRP	0.609
RRIRDRPPRLPRPRPRPGSIPRP	0.0264
RRIRHRPPRLPRPRPRPGRTPRP	0.208
RRIRHRPPRLPRPRPRPPTFPRP	-0.0769
RRIRMRPPRLPRPRPRPWVQPRP	0.015
RRIRWRPPRLPRPRPRPAWWPRP	0.691
RRIRSRPPRLPRPRPRPQIIPRP	-0.226
RRIRCRPPRLPRPRPRPVEDPRP	-0.0221
RRIRVRPPRLPRPRPRPVFSPRP	-0.176
RRIRVRPPRLPRPRPRPFFNPRP	-0.32
RRIRERPPRLPRPRPRPVQFPRP	-0.0474
RRIRMRPPRLPRPRPRPIWCPRP	-0.234
RRIRHRPPRLPRPRPRPGDMPRP	-0.157
RRIRSRPPRLPRPRPRPNSRPRP	-0.105
RRIRMRPPRLPRPRPRPGYLPRP	0.0963
RRIRMRPPRLPRPRPRPMMVPRP	-0.00664
RRIRGRPPRLPRPRPRPAGFPRP	0.775
RRIRERPPRLPRPRPRPAVAPRP	0.0153
RRIRPRPPRLPRPRPRPATPPRP	0.216
RRIRQRPPRLPRPRPRPVPCPRP	0.0476
RRIRYRPPRLPRPRPRPDNYPRP	-0.175
RRIRERPPRLPRPRPRPHPIPRP	-0.0808
RRIRSRPPRLPRPRPRPNWCPRP	0.0144
